One molecule from US20230227537A1 can be followed below.

In the assay the target is Mouse IgG1 Fc fused SARS-CoV-2 RBD (Sino Biological) (SARS-CoV-2; mouse), P0DTC2. The conditions noted are these: remark: other sources report otherwise.

Values joined by “and” are separate entries in the source; they are usually repeats but may differ in a detail not shown here. Identical values can stand only once.

B1: VHH72_S56A-Fc (P. pastoris) (Fc fusion)
chain: QVQLQESGGGLVQAGGSLRLSCAASGRTFSEYAMGWFRQAPGKEREFVATISWSGGATYYTDSVKGRFTISRDNAKNTVYLQMNSLKPDDTAVYYCAAAGLGTVVSEWDYDYDYWGQGTQVTVSS
For the molecule B1, the % Signal decrease over 8 min dissociation is 6% and 7%; the equilibrium dissociation constant (Kd) (as a rule, the concentration at which binding is half-saturated) is 0.0496 nM and 0.0541 nM; the koff (commonly the rate constant with which the complex falls apart) is 0.000123 s⁻¹ and 0.000146 s⁻¹; the on-rate (kon) (as a rule, a measure of how fast the partners come together) is 2.48e+06 M⁻¹ s⁻¹ and 2.69e+06 M⁻¹ s⁻¹.
